Biological target: wild-type Pseudomonas testosteroni ketosteroid isomerase (KSI) (Pseudomonas testosteroni)
Assay: SEC

“wild-type Pseudomonas testosteroni ketosteroid isomerase (KSI) (enzyme)” was tested, and the stoichiometry N was 2.

— doi:10.1101/2021.07.02.450934
